Test system: Escherichia coli TOP10
Test: shrunken log2 fold change of peptide-encoding DNA abundance (4.5 h post-induction vs induction); higher = less antimicrobial activity (less host growth inhibition)
Details: time post-induction: 4.5 h; library: site-saturation at positions 5, 18, 19, 20
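Also: peptides expressed intracellularly from a pBAD plasmid library in pooled LB shake-flask culture, induced with 0.3% L-arabinose, DNA abundance read by NGS, three biological replicates, DESeq2 with apeglm shrinkage.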

Sequence	shrunken log2 fold change
RRIRKRPPRLPRPRPRPKTMPRP	0.185
RRIRNRPPRLPRPRPRPEYFPRP	-0.0135
RRIRNRPPRLPRPRPRPTYTPRP	-0.303
RRIRNRPPRLPRPRPRPSARPRP	0.256
RRIRDRPPRLPRPRPRPSMYPRP	-0.105
RRIRSRPPRLPRPRPRPPYEPRP	0.0519
RRIRMRPPRLPRPRPRPNPQPRP	0.279
RRIRNRPPRLPRPRPRPHLVPRP	-0.0893
RRIRERPPRLPRPRPRPMKLPRP	-0.0902
RRIRKRPPRLPRPRPRPFDSPRP	-0.0504
RRIRMRPPRLPRPRPRPGMEPRP	0.183
RRIRHRPPRLPRPRPRPWFVPRP	-0.14
RRIRWRPPRLPRPRPRPKKFPRP	0.0141
RRIRKRPPRLPRPRPRPAYMPRP	0.0668
RRIRQRPPRLPRPRPRPISGPRP	-0.018
RRIRKRPPRLPRPRPRPRFPPRP	0.647
RRIRKRPPRLPRPRPRPCQFPRP	-0.117
RRIRVRPPRLPRPRPRPYRHPRP	-1.08
RRIRMRPPRLPRPRPRPNAPPRP	-0.0273
RRIRWRPPRLPRPRPRPAIKPRP	0.0964
RRIRGRPPRLPRPRPRPTAKPRP	1.92
RRIRPRPPRLPRPRPRPHMDPRP	-0.374
RRIRERPPRLPRPRPRPYLTPRP	-0.424

Sequence	shrunken log2 fold change
RRIRVRPPRLPRPRPRPFPQPRP	-0.312
RRIRTRPPRLPRPRPRPNYWPRP	-0.208
RRIRIRPPRLPRPRPRPSWFPRP	-0.529
RRIRMRPPRLPRPRPRPDYEPRP	-0.0178
RRIRERPPRLPRPRPRPKYYPRP	-0.183
RRIRQRPPRLPRPRPRPKWSPRP	0.0364
RRIRDRPPRLPRPRPRPFNDPRP	-0.158
RRIRGRPPRLPRPRPRPWHVPRP	-0.0733
RRIRTRPPRLPRPRPRPLRFPRP	0.742
RRIRKRPPRLPRPRPRPTCTPRP	0.314
RRIRLRPPRLPRPRPRPDLVPRP	0.00214
RRIRCRPPRLPRPRPRPPAQPRP	1.18
RRIRFRPPRLPRPRPRPPPLPRP	1.38
RRIRWRPPRLPRPRPRPNCQPRP	-0.14
RRIRFRPPRLPRPRPRPVQMPRP	0.189
RRIRARPPRLPRPRPRPANSPRP	0.329
RRIRDRPPRLPRPRPRPVWQPRP	0.63
RRIRLRPPRLPRPRPRPAWKPRP	0.151
RRIRVRPPRLPRPRPRPRTHPRP	0.199
RRIRHRPPRLPRPRPRPMRNPRP	0.435
RRIRDRPPRLPRPRPRPIDIPRP	-0.0169
RRIRRRPPRLPRPRPRPGDRPRP	0.265
RRIRGRPPRLPRPRPRPTMKPRP	0.757

Sequence	shrunken log2 fold change
RRIRKRPPRLPRPRPRPSWGPRP	0.00315
RRIRLRPPRLPRPRPRPCPCPRP	-0.0536
RRIRRRPPRLPRPRPRPTRCPRP	0.661
RRIRWRPPRLPRPRPRPIWHPRP	0.126
RRIRRRPPRLPRPRPRPGCMPRP	0.835
RRIRKRPPRLPRPRPRPSPEPRP	0.525
RRIRHRPPRLPRPRPRPYCRPRP	-0.0455
RRIRERPPRLPRPRPRPDVSPRP	0.0276
RRIRHRPPRLPRPRPRPCTAPRP	0.0655
RRIRCRPPRLPRPRPRPIQPPRP	-0.137
RRIRWRPPRLPRPRPRPLDPPRP	0.0629
RRIRDRPPRLPRPRPRPRMLPRP	0.229
RRIRYRPPRLPRPRPRPGYQPRP	-0.241
RRIRRRPPRLPRPRPRPCTNPRP	0.0186
RRIRERPPRLPRPRPRPVYFPRP	-0.207
RRIRDRPPRLPRPRPRPYPNPRP	-0.0838
RRIRERPPRLPRPRPRPSARPRP	-0.192
RRIRLRPPRLPRPRPRPNHAPRP	-0.0276
RRIRHRPPRLPRPRPRPIMVPRP	-0.000687
RRIRRRPPRLPRPRPRPENRPRP	0.0232
RRIRDRPPRLPRPRPRPATPPRP	0.276
RRIRQRPPRLPRPRPRPGNHPRP	-0.0216
RRIRSRPPRLPRPRPRPQRQPRP	0.116

Sequence	shrunken log2 fold change
RRIRYRPPRLPRPRPRPDNNPRP	-0.189
RRIRSRPPRLPRPRPRPDPPPRP	0.746
RRIRQRPPRLPRPRPRPNDVPRP	0.00724
RRIRYRPPRLPRPRPRPTTCPRP	-0.923
RRIRSRPPRLPRPRPRPIKWPRP	-0.197
RRIRWRPPRLPRPRPRPKRLPRP	2.54
RRIRQRPPRLPRPRPRPRCIPRP	-0.188
RRIRKRPPRLPRPRPRPKAFPRP	0.0156
RRIRNRPPRLPRPRPRPYTNPRP	-0.424
RRIRERPPRLPRPRPRPQEWPRP	-0.021
RRIRGRPPRLPRPRPRPFAIPRP	-0.0466
RRIRNRPPRLPRPRPRPLNFPRP	-0.71
RRIRHRPPRLPRPRPRPSDCPRP	-0.126
RRIRSRPPRLPRPRPRPRISPRP	0.0353
RRIRPRPPRLPRPRPRPAMNPRP	0.193
RRIRPRPPRLPRPRPRPKHKPRP	-0.0938
RRIRPRPPRLPRPRPRPPWKPRP	0.416
RRIRHRPPRLPRPRPRPTARPRP	0.156
RRIRVRPPRLPRPRPRPSILPRP	-0.312
RRIRTRPPRLPRPRPRPSQPPRP	-0.16
RRIRYRPPRLPRPRPRPENFPRP	0.00911
RRIRMRPPRLPRPRPRPVNIPRP	-0.361

Reference: the supplement of paper PMC9112550, “Optimization of the antimicrobial peptide Bac7 by deep mutational scanning” (BMC Biology, 2022)
